According to publication PMC10302205, “Saccharomyces cerevisiae Δ9-desaturase Ole1 forms a supercomplex with Slc1 and Dga1” (The Journal of Biological Chemistry, 2023):
Positions count from the first letter of the chain named. In names and notes the source's numbering stands.

What was measured:
Slc1-Cub-LexA-VP16 = target: T1, Slc1-Cub-LexA-VP16 (S. cerevisiae, UniProt P33333 1-303); assay: two-hybrid; membrane yeast two-hybrid (split ubiquitin): plasmid-borne Slc1-Cub-LexA-VP16 as bait and NubG fusions as prey in NMY51; growth on SD-W-L-H-A with 6 mM 3-aminotriazole and β-galactosidase activity of cell extracts; conditions: partners not purified
T1 construct: Slc1, lysophosphatidic acid acyltransferase of S. cerevisiae; The end of the tag is read from the order of the printed label; also called Slc1 bait (strain YBG2); pTMBV4-SLC1; not shown: Cub-LexA-VP16, C-terminal, kept
T1 sequence (looked up): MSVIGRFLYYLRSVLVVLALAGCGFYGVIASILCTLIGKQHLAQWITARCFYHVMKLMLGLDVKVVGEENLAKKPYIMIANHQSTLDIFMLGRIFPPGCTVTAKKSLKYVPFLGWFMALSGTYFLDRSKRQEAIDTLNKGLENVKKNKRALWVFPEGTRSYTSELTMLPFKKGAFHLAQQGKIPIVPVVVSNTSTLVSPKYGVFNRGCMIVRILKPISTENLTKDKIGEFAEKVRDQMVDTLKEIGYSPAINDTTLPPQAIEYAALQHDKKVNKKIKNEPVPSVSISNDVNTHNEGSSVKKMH

Ole1-Myc-Cub-LexA-VP16 = target: T2, Ole1-Myc-Cub-LexA-VP16 (S. cerevisiae, UniProt P21147 1-510); assay: two-hybrid; integrated membrane yeast two-hybrid (split ubiquitin): Ole1-Myc-Cub-LexA-VP16 from the endogenous locus of strain YBG1 as bait, NubG fusions from plasmids as prey; growth on SD-W-H-A with 6 mM 3-aminotriazole and β-galactosidase activity of cell extracts
T2 construct: Ole1, Δ9 acyl-CoA (stearoyl-CoA) desaturase of S. cerevisiae; the endogenous chromosomal OLE1 gene, with the tag at its carboxyl end; The tag was put behind the chromosomal gene, so the whole protein is likely; also called Δ9 acyl-CoA desaturase Ole1; Ole1-Cub-LexA-VP16; not shown: Myc, C-terminal, kept; Cub-LexA-VP16, C-terminal, kept
T2 sequence (looked up): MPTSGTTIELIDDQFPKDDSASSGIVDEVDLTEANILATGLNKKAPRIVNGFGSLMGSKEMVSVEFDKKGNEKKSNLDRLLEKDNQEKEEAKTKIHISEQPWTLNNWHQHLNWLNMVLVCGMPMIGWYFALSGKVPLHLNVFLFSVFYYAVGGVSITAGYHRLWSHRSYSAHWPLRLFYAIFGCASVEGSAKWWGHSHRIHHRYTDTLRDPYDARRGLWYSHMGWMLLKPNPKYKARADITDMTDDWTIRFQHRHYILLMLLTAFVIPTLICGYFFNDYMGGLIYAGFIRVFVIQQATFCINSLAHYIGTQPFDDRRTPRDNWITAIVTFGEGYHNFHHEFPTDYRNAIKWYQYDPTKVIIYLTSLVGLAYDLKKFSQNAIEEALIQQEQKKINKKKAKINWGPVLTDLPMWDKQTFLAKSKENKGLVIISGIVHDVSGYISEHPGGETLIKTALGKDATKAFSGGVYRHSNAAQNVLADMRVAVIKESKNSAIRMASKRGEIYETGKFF

B1: NubG-Dga1 (full-length NubG-Dga1 fusion) (enzyme, S. cerevisiae, UniProt Q08650 1-418, looked up)
chain: MSGTFNDIRRRKKEEGSPTAGITERHENKSLSSIDKREQTLKPQLESCCPLATPFERRLQTLAVAWHTSSFVLFSIFTLFAISTPALWVLAIPYMIYFFFDRSPATGEVVNRYSLRFRSLPIWKWYCDYFPISLIKTVNLKPTFTLSKNKRVNEKNYKIRLWPTKYSINLKSNSTIDYRNQECTGPTYLFGYHPHGIGALGAFGAFATEGCNYSKIFPGIPISLMTLVTQFHIPLYRDYLLALGISSVSRKNALRTLSKNQSICIVVGGARESLLSSTNGTQLILNKRKGFIKLAIQTGNINLVPVFAFGEVDCYNVLSTKKDSVLGKMQLWFKENFGFTIPIFYARGLFNYDFGLLPFRAPINVVVGRPIYVEKKITNPPDDVVNHFHDLYIAELKRLYYENREKYGVPDAELKIVG
notes: Dga1, diacylglycerol acyltransferase of S. cerevisiae; DGA1 amplified from W303 genomic DNA; 418 residues by the printed ranges; also called pNubG-DGA1; pADSL-NubG-DGA1; source: yeast two-hybrid fusion (split ubiquitin prey), from plasmid pADSL-NubG-DGA1 in S. cerevisiae; not shown: NubG, N-terminal, kept
Slc1-Cub-LexA-VP16
  β-galactosidase activity, fold over Alg5-NubG: 17 fold over Alg5-NubG
Ole1-Myc-Cub-LexA-VP16
  β-galactosidase activity, fold over the negative control Alg5-NubG (fold over the negative control): 11

B2: NubG-Dga1DEK (Dga1 D411A, E413A, K415A) (enzyme, S. cerevisiae, UniProt Q08650 1-418, looked up)
chain: B1 chain with D411A, E413A, K415A
notes: Dga1 of S. cerevisiae, charged-to-alanine mutant made in pADSL-NubG-DGA1 (the full-length fusion); source: yeast two-hybrid fusion (split ubiquitin prey), synthetic DNA fragment assembled into pADSL-NubG-DGA1, in S. cerevisiae; not shown: NubG, N-terminal, kept
Ole1-Myc-Cub-LexA-VP16; partners not purified
  β-galactosidase activity, % of wildtype Dga1: ~60 % of wildtype Dga1

B3: NubG-Dga1KR (Dga1 K397A, R398A) (enzyme, S. cerevisiae, UniProt Q08650 1-418, looked up)
chain: B1 chain with K397A, R398A
notes: as for B2
Ole1-Myc-Cub-LexA-VP16; partners not purified
  β-galactosidase activity, % of wildtype Dga1: ~60 % of wildtype Dga1

B4: NubG-Gpt2 (enzyme, S. cerevisiae, UniProt P36148 1-743, looked up)
chain: MSAPAADHNAAKPIPHVPQASRRYKNSYNGFVYNIHTWLYDVSVFLFNILFTIFFREIKVRGAYNVPEVGVPTILVCAPHANQFIDPALVMSQTRLLKTSAGKSRSRMPCFVTAESSFKKRFISFFGHAMGGIPVPRIQDNLKPVDENLEIYAPDLKNHPEIIKGRSKNPQTTPVNFTKRFSAKSLLGLPDYLSNAQIKEIPDDETIILSSPFRTSKSKVVELLTNGTNFKYAEKIDNTETFQSVFDHLHTKGCVGIFPEGGSHDRPSLLPIKAGVAIMALGAVAADPTMKVAVVPCGLHYFHRNKFRSRAVLEYGEPIVVDGKYGEMYKDSPRETVSKLLKKITNSLFSVTENAPDYDTLMVIQAARRLYQPVKVRLPLPAIVEINRRLLFGYSKFKDDPRIIHLKKLVYDYNRKLDSVGLKDHQVMQLKTTKLEALRCFVTLIVRLIKFSVFAILSLPGSILFTPIFIICRVYSEKKAKEGLKKSLVKIKGTDLLATWKLIVALILAPILYVTYSILLIILARKQHYCRIWVPSNNAFIQFVYFYALLVFTTYSSLKTGEIGVDLFKSLRPLFVSIVYPGKKIEEIQTTRKNLSLELTAVCNDLGPLVFPDYDKLATEIFSKRDGYDVSSDAESSISRMSVQSRSRSSSIHSIGSLASNALSRVNSRGSLTDIPIFSDAKQGQWKSEGETSEDEDEFDEKNPAIVQTARSSDLNKENSRNTNISSKIASLVRQKREHEKKE
notes: Gpt2, glycerophosphate acyltransferase of S. cerevisiae; also called pNubG-GPT2; pADSL-NubG-GPT2; source: yeast two-hybrid fusion (split ubiquitin prey), from plasmid pADSL-NubG-GPT2 in S. cerevisiae; not shown: NubG, N-terminal, kept
Slc1-Cub-LexA-VP16
  β-galactosidase activity, fold over Alg5-NubG: ~10 fold over Alg5-NubG

B5: NubG-Sct1 (enzyme, S. cerevisiae, UniProt P32784 1-759, looked up)
chain: MPAPKLTEKFASSKSTQKTTNYSSIEAKSVKTSADQAYIYQEPSATKKILYSIATWLLYNIFHCFFREIRGRGSFKVPQQGPVIFVAAPHANQFVDPVILMGEVKKSVNRRVSFLIAESSLKQPPIGFLASFFMAIGVVRPQDNLKPAEGTIRVDPTDYKRVIGHDTHFLTDCMPKGLIGLPKSMGFGEIQSIESDTSLTLRKEFKMAKPEIKTALLTGTTYKYAAKVDQSCVYHRVFEHLAHNNCIGIFPEGGSHDRTNLLPLKAGVAIMALGCMDKHPDVNVKIVPCGMNYFHPHKFRSRAVVEFGDPIEIPKELVAKYHNPETNRDAVKELLDTISKGLQSVTVTCSDYETLMVVQTIRRLYMTQFSTKLPLPLIVEMNRRMVKGYEFYRNDPKIADLTKDIMAYNAALRHYNLPDHLVEEAKVNFAKNLGLVFFRSIGLCILFSLAMPGIIMFSPVFILAKRISQEKARTALSKSTVKIKANDVIATWKILIGMGFAPLLYIFWSVLITYYLRHKPWNKIYVFSGSYISCVIVTYSALIVGDIGMDGFKSLRPLVLSLTSPKGLQKLQKDRRNLAERIIEVVNNFGSELFPDFDSAALREEFDVIDEEEEDRKTSELNRRKMLRKQKIKRQEKDSSSPIISQRDNHDAYEHHNQDSDGVSLVNSDNSLSNIPLFSSTFHRKSESSLASTSVAPSSSSEFEVENEILEEKNGLASKIAQAVLNKRIGENTAREEEEEEEEEEEEEEEEEEGKEGDA
notes: Sct1, glycerophosphate acyltransferase of S. cerevisiae; also called pNubG-SCT1; pADSL-NubG-SCT1; source: yeast two-hybrid fusion (split ubiquitin prey), from plasmid pADSL-NubG-SCT1 in S. cerevisiae; not shown: NubG, N-terminal, kept
Slc1-Cub-LexA-VP16
  β-galactosidase activity, fold of the negative control: 3 fold of the negative control
Ole1-Myc-Cub-LexA-VP16
  β-galactosidase activity, fold of the negative control Alg5-NubG (fold of the negative control): 2

B6: NubG-Slc1 (enzyme, S. cerevisiae, UniProt P33333 1-303, looked up)
chain: T1 sequence (looked up)
notes: Slc1, lysophosphatidic acid acyltransferase of S. cerevisiae; 'the SLC1 open reading frame was amplified from S. cerevisiae genomic DNA'; also called pADSL-NubG-SLC1; source: yeast two-hybrid fusion (split ubiquitin prey), from plasmid pADSL-NubG-SLC1 in S. cerevisiae; not shown: NubG, N-terminal, kept
Ole1-Myc-Cub-LexA-VP16; partners not purified
  β-galactosidase activity, fold over the negative control Alg5-NubG: 9 fold over the negative control
